{"source": "patent US20250197486A1", "about": "(Novartis, published 2025)", "binders": {"B1": {"name": "brolucizumab (scFv)", "scFv": "MEIVMTQSPSTLSASVGDRVIITCQASEIIHSWLAWYQQKPGKAPKLLIYLASTLASGVPSRFSGSGSGAEFTLTISSLQPDDFATYYCQNVYLASTNGANFGQGTKLTVLGGGGGSGGGGSGGGGSGGGGSEVQLVESGGGLVQPGGSLRLSCTASGFSLTDYYYMTWVRQAPGKGLEWVGFIDPDDDPYYATWAKGRFTISRDNSKNTLYLQMNSLRAEDTAVYYCAGGDHNSGWGLDIWGQGTLVTVSS", "notes": "Humanized scFv of about 26 kDa, VL-linker-VH; also called Beovu; drug"}}, "target": "T1, human VEGF165 (human, UniProt P15692 27-191)", "T1 construct": "mature; The canonical UniProt entry is a longer isoform, so the VEGF165 isoform must be chosen; also called recombinant VEGF165 protein; VEGF-A", "T1 sequence (P15692 other isoform, or with tags, fused parts or gaps)": "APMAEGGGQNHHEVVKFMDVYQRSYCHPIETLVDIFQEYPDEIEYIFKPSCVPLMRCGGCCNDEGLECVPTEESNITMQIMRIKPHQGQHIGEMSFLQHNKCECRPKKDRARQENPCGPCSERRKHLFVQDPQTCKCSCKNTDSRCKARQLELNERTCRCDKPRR", "experiment": "SPR, in vitro, recombinant VEGF165, 37 °C", "protocol": "The brolucizumab: VEGF binding parameter values (Table 8) were defined on the basis of a surface plasmon resonance (SPR) in vitro binding experiment with drug and recombinant VEGF165 protein at 37° C. These in vitro measured brolucizumab: VEGF binding parameter values were then scaled similar to ranibizumab to obtain in vivo estimates. […] The scaling is performed such that the koff is kept constant and the kon is divided by the scaling factor.", "data": [{"binder": "B1", "values": [{"measurement": "Kd", "result": 0.101, "unit": "nM"}, {"measurement": "koff", "result": 0.00025, "unit": "s⁻¹"}, {"measurement": "kon", "result": "2.5e+06", "unit": "M⁻¹ s⁻¹"}]}]}
